The target in experiment [1] is SMALP-Sf-ABCC2-FLAG (Sf-ABCC2 extracted from silkworm pupae membranes with styrene maleic acid and affinity purified) (Spodoptera frugiperda). Kind of experiment: immuno-magnetic separation with SMALP-Sf-ABCC2 and anti-FLAG magnetic beads; colonies on LB-tet.
Experiment [2] concerns the target T1, Spore-Cry1Fa (Bacillus subtilis spores displaying the Bacillus thuringiensis Cry1Fa protein as a … (Bacillus thuringiensis, UniProt Q03746 1-615)).
T1 construct: vector pSB634 or pHY300PLK
T1 sequence: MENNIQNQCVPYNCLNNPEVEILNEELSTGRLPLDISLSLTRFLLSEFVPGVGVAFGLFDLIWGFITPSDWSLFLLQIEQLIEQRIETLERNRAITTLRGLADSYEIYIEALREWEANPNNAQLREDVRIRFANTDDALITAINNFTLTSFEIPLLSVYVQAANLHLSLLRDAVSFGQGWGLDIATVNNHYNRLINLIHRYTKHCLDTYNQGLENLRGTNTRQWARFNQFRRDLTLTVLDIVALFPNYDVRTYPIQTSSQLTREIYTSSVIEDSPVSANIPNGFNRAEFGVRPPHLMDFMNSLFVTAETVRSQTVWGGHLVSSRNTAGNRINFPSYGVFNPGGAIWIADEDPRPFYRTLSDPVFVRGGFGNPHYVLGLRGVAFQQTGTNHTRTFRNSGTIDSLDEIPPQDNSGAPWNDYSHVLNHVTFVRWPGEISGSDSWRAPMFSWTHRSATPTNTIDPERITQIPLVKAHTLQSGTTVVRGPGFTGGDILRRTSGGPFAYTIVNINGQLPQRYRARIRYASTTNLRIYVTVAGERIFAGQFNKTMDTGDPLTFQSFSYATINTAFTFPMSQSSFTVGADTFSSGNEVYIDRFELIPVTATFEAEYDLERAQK
Kind of experiment: microscopy of spores on Sf9 cells expressing Sf-ABCC2.

The target of experiment [3] is T1, Spore-Cry1Fa (Bacillus subtilis spores …). Description: immuno-magnetic separation with anti-FLAG magnetic beads.
The target of experiment [4] is T2, Spore-Cry1Aa (Bacillus subtilis spores displaying the Bacillus thuringiensis Cry1Aa protein as a … (Bacillus thuringiensis, UniProt P0A366 1-621)).
T2 construct: vector pSB634 or pHY300PLK
Kind of experiment: flow cytometry of spores labelled with Bm-ABCC2, anti-FLAG mouse antibody and Alexa-labelled anti-mouse IgG, after a wash with 0.2% SDS.

Regarding “Spore-pSB634 (Bacillus subtilis spores carrying the empty vector pSB634, no Cry protein displayed)”, in experiment [1], the spores (colonies) pulled out by the magnetic beads from 10^6 spores (spores (colonies)) came out at 9.

B1: Sf-ABCC2 (Spodoptera frugiperda ABC transporter subfamily C type 2, C-terminal FLAG tag) expressed on Sf9 cells (receptor)
chain: MDKSNKNTAANGNGGQRAGEPKKRVRKKPNILSRIFVWWIFPVLITGNKRDVEEDDLIVPSKKFNSERQGEYFERYWFEEVAIAEREDRDPSLWKAMRRAYWLQYMPGAIFVLLISGLRTAQPLLFSQLLSYWSVDSEMSQQDAGLYALAMLGINFITMMCTHHNNLFVMRFSMKVKIAASSLLFRKLLRMSQVSVGDVAGGKLVNLLSNDVARFDYAFMFLHYLWVVPLQVGVVLYFVYDAAGWAPYVGLFGVIILIMPLQAGLTKLTGVVRRMTAKRTDKRIKLMSEIINGIQVIKMYAWEKPFQLVVKAARAYEMSALRKSIFIRSMFLGFMLFTERSVMFLTVLTLALTGNMISATLIYPIQQYFGIITMNVTLILPMAFASFSEMLISLERIQGFLLLDERSDIQITPKVVNGAGSKLFNNSKKEGGLETGIVLPTKYSPTEASIARPVQDEPNMADYPVQLNKVNATWADLNDNKEMTLKNISLRVRKNKLCAVIGPVGSGKTSLLQLLLRELPVTSGNLSISGTVSYASQEPWLFPATVRENILFGLEYNVAKYKEVCKVCSLLPDFKQFPYGDLSLVGERGVSLSGGQRARINLARAVYREADIYLLDDPLSAVDANVGRQLFDGCIKGYLSGKTCILVTHQIHYLKAADFIVVLNEGSVENMGSYDELMKTGTEFSMLLSDQASEGSDTDKKERPAMMQGISKMSVKSDDEEGEEKVQVLEAEERQSGSLKWDVLGRYMKSVNSWCMVVMAFLVLVITQGAATTTDYWLSFWTNQVDGYIQTLPEGESPNPELDTQVGLLTTGQYLIVHGSVVLAIIILTQVRILSFVVMTMRASENLHNTIYEKLIVAVMRFFDTNPSGRVLNRFSKDMGAMDELLPRSMLETVQMYLSLASVLVLNAIALPWTLIPTTVLMFIFVFLLKWYINAAQAVKRLEGTTKSPVFGMINSTISGLSTIRSSNSQDRLLNSFDDAQNLHTSAFYTFLGGSTAFGLYLDTLCLIYLGIIMSIFILGDFGELIPVGSVGLAVSQSMVLTMMLQMAAKFTADFLGQMTAVERVLEYTKLPTEENMETGPTTPPKGWPSAGEVTFSNVYLKYSPDDPPVLKDLNFAIKSGWKVGVVGRTGAGKSSLISALFRLSDITGSIKIDGLDTQGIAKKLLRSKISIIPQEPVLFSASLRYNLDPFDNYNDEDIWRALEQVELKESIPALDYKVSEGGTNFSMGQRQLVCLARAILRSNKILIMDEATANVDPQTDALIQKTIRKQFANCTVLTIAHRLNTIMDSDRVLVMDQGVAAEFDHPYILLSNPNSKFSSMVKETGDNMSRILFEVAKTKYESDSKTADYKDDDDK
notes: Expressed in Sf9 cells by baculovirus together with EGFP; also called Sf9::Sf-ABCC2; Sf9 expressing Sf-ABCC2
Regarding B1, in experiment [2], the binding result is “binds”.

B2: SMALP-Sf-ABCC2-FLAG (Sf-ABCC2 extracted from silkworm pupae membranes with styrene maleic acid and affinity purified) (receptor)
chain: MDKSNKNTAANGNGGQRAGEPKKRVRKKPNILSRIFVWWIFPVLITGNKRDVEEDDLIVPSKKFNSERQGEYFERYWFEEVAIAEREDRDPSLWKAMRRAYWLQYMPGAIFVLLISGLRTAQPLLFSQLLSYWSVDSEMSQQDAGLYALAMLGINFITMMCTHHNNLFVMRFSMKVKIAASSLLFRKLLRMSQVSVGDVAGGKLVNLLSNDVARFDYAFMFLHYLWVVPLQVGVVLYFVYDAAGWAPYVGLFGVIILIMPLQAGLTKLTGVVRRMTAKRTDKRIKLMSEIINGIQVIKMYAWEKPFQLVVKAARAYEMSALRKSIFIRSMFLGFMLFTERSVMFLTVLTLALTGNMISATLIYPIQQYFGIITMNVTLILPMAFASFSEMLISLERIQGFLLLDERSDIQITPKVVNGAGSKLFNNSKKEGGLETGIVLPTKYSPTEASIARPVQDEPNMADYPVQLNKVNATWADLNDNKEMTLKNISLRVRKNKLCAVIGPVGSGKTSLLQLLLRELPVTSGNLSISGTVSYASQEPWLFPATVRENILFGLEYNVAKYKEVCKVCSLLPDFKQFPYGDLSLVGERGVSLSGGQRARINLARAVYREADIYLLDDPLSAVDANVGRQLFDGCIKGYLSGKTCILVTHQIHYLKAADFIVVLNEGSVENMGSYDELMKTGTEFSMLLSDQASEGSDTDKKERPAMMQGISKMSVKSDDEEGEEKVQVLEAEERQSGSLKWDVLGRYMKSVNSWCMVVMAFLVLVITQGAATTTDYWLSFWTNQVDGYIQTLPEGESPNPELDTQVGLLTTGQYLIVHGSVVLAIIILTQVRILSFVVMTMRASENLHNTIYEKLIVAVMRFFDTNPSGRVLNRFSKDMGAMDELLPRSMLETVQMYLSLASVLVLNAIALPWTLIPTTVLMFIFVFLLKWYINAAQAVKRLEGTTKSPVFGMINSTISGLSTIRSSNSQDRLLNSFDDAQNLHTSAFYTFLGGSTAFGLYLDTLCLIYLGIIMSIFILGDFGELIPVGSVGLAVSQSMVLTMMLQMAAKFTADFLGQMTAVERVLEYTKLPTEENMETGPTTPPKGWPSAGEVTFSNVYLKYSPDDPPVLKDLNFAIKSGWKVGVVGRTGAGKSSLISALFRLSDITGSIKIDGLDTQGIAKKLLRSKISIIPQEPVLFSASLRYNLDPFDNYNDEDIWRALEQVELKESIPALDYKVSEGGTNFSMGQRQLVCLARAILRSNKILIMDEATANVDPQTDALIQKTIRKQFANCTVLTIAHRLNTIMDSDRVLVMDQGVAAEFDHPYILLSNPNSKFSSMVKETGDNMSRILFEVAKTKYESDSKTADYKDDDDK
notes: also called Sf-ABCC2 in SMALP
On to B2, for which the binding result in experiment [3] is on record as “binds”.

B3: Bm-ABCC2 solubilized in 1% Triton X100 and affinity purified (C-terminal FLAG tag) (receptor)
chain: MNSDGRAGENSSAETRRKPHKPNILSRIFLWWMCPVLVKGNQRDTVEDDLIIPKKSFNSENQGEYLERYWLQEYEAAIKEKREPSLWTALRKAYWLGYMPGAIYLIIISVFRIIQPLVFAELLSYWSVEATITRLEASYYALALLGINFINMMCQHHNSLFVARFGLKVKVACSSLVYRKLLRMDQVALGDVSGGKLVNLLSNDVARFDYAFMFLHYLWVVPVQAAVVLYFLYISAGYAPFVGFFGVVILILPIQAGLTKLTSVVRRETAQRTDRRIKLMTEIINGIQVIKMYAWEKPFQAIVKVARNFEMIALRKSIFIRSVFLGFMLFTERSIIFITCLTFLLTGNLVTATLIYPIQQYISIIQINLTMILPLAIASLSEMLVSLERIQNFLVKDEREDVQITPKSYGDDNRLIFNNKASLGPQNEIIPKKYLATDGQLASTLTNEPVLSTDPAVCDYPIELSKVDATWSSSTDTSEMTLRNITLRIGRGKLCAIIGPVGSGKSSILQVLLKELPVCGGSLRINGRLSYACQESWLFPATVRENILFGLPYDSQKYHEVCKACSLLPDFKQFPYGDLSLVGERGVSLSGGQRARINLARAVYREADIYLLDDPLSAVDANVGRQLFDGCIKGYLRGRTCVLVTHQIHYLKAADIIVILNEGAIENVGSYDDLVNTGTEFSKLLTNQESNDNENGPEKNFLRAISKISTKSVEDPDNEKVQVEEEEKRAKGNLKFSVLYKYLSAVKSWFLVFLMVVTLVITQGCATFIDYWLSFWTNQVDEYEQSLAEGEEPSTSLDTQAGAFTLGVYLWTYGGVILILIVISHVRILTFVITTMRASSNFHDTVYKKLIITVMRFFDMNPSGRVLNRFSKDMGAMDEFLPRSLFETVQMYLTLCSILILNAIALPWTLIPTAVLLILFFVLLKWYLNAAQAVKRLEGTTKSPVLGMINSTLTGLSTIRSSNSQGRLLQMFDNAQNLHTSAFYTFVGGSTAFGLYLDALCLVYLGVILTIFLVIDFSTLIPVGSVGLAVSQSMVLTMMLQMAARFTADFLGQMTAVERVLEYTELPMEENMYDGSQLPKDWPTHGRIEFQNLFLNYSQEDPPVLKDLNFVIENGWKVGVVGRTGAGKSSMISALFRLYELQGHIRIDGIDTNIIAKTELRSKISIIPQEPILFSASVRYNLDPFDSYSDDEIWRALEQVELKEVIPALDYKVSEGGSNFSVGQRQLVCLARAVLRSNKILVMDEATANVDPQTDALIQTTIRREFASCTVITIAHRLNTIMDSDRVLVMDKGVVAEYDTPYALLSDPNSIFSSMVRETGDTMSKVLFRVAEDKHLGRNTEKDYKDDDDK
Consider B3, for which the binding result in experiment [4] is listed as “binds”.

(Values after US20250059241A1 (SYNGENTA CROP PROTECTION, published 2025).)
